# Measured values from patent US11505586B2, “Interaction of Draxin and γ-netrins” (Max-Planck-Gesellschaft zur Foerderung der Wissenschaften …, priority 2014, dated 2022).
# Assays:
# recombinant human UNC5B = biological target: T1, recombinant human UNC5B (Homo sapiens, UniProt Q8IZJ1); experiment: Surface Plasmon Resonance; type: binding; conditions: Biacore 3000, Draxin 0-18.8 nM
# T1 construct: made in house; host or cells: HEK293-6E
# Procedure: (§1) Surface Plasmon Resonance (SPR) experiments were performed on a Biacore 3000 (GE Healthcare) at 25° C. using a SA sensor chip in 0.01 M HEPES, pH 7.4, 0.15 M NaCl, 0.005% Surfactant P20 (HBS-P) running buffer at a flow rate of 30 μl/min. The instrument was used according to manufacturer's instructions.
# (§2) Recombinant human Draxin was purchased from R&D systems. Biotinylated recombinant human UNC5B, Netrin1 and DCC were produced recombinantly using the described mammalian expression system (HEK293-6E). Biotinylated proteins were immobilised on the SA coated sensor chip and Draxin was injected sequentially in increasing concentrations (0 nM, 1.2 nM. 2.3 nM, 4.7 nM, 9.4 nM, 18.8 nM) for 3 min. […] No binding of Draxin to UNC5B and DCC was detected (FIG. 14).
# recombinant human DCC = biological target: T2, recombinant human DCC (Homo sapiens, UniProt P43146); experiment: Surface Plasmon Resonance; type: binding; conditions: Biacore 3000, Draxin 0-18.8 nM
# T2 construct: made in house; host or cells: HEK293-6E
# Procedure: as §1, §2
# Netrin receptors = experiment: AVEXIS direct binding to Netrin receptors; set-up: species or system zebrafish; conditions: AVEXIS platform
# Excerpt: By using an AVEXIS-based competition assay (FIG. 6 A) we tested whether the binding of DraxinA to Netrin1a has an influence on Netrins ability to bind to Netrin receptors. First we confirmed that we reliably detected the binding of Netrin1a to Netrin receptors of the DCC/Neo1 and Unc5 families with the AVEXIS method. We also tested whether Draxin is able to bind to the corresponding Netrin receptors. […] This has also been confirmed by a recent publication (Haddick et al. 2014). In the competition assay the extracellular domains (ECDs) of Netrin receptors have been used as prey proteins together with purified full length DraxinA and probed for binding against Netrin1a bait proteins. […] The inhibition is specific for DraxinA.
# T2 sequence (P43146 26-1097 limits assumed): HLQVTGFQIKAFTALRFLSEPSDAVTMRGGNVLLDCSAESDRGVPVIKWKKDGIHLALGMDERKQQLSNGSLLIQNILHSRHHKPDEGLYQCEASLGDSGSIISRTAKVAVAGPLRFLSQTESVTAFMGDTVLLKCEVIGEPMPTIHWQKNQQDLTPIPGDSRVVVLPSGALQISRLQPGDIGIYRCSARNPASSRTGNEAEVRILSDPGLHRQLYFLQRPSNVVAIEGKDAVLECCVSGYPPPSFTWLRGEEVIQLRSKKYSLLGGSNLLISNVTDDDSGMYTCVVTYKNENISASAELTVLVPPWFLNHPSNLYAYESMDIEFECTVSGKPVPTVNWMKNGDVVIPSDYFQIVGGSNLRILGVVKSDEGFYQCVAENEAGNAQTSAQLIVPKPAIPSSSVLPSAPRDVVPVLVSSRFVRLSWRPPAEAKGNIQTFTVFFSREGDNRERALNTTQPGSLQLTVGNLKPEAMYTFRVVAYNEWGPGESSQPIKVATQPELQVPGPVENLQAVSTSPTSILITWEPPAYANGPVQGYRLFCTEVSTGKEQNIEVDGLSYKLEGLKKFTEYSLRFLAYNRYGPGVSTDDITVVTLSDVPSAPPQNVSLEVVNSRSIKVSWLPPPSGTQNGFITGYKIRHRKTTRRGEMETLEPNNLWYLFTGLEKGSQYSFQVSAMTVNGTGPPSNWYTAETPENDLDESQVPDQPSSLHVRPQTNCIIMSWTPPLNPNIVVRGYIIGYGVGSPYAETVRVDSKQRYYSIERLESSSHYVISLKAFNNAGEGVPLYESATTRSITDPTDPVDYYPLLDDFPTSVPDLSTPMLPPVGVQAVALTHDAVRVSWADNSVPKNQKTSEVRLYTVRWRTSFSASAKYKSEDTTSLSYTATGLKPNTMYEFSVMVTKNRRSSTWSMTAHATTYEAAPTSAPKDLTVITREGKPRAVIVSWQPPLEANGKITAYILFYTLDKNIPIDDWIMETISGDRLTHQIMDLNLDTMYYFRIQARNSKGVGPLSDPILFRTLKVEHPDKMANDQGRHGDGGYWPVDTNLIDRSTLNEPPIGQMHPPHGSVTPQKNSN
molecule,measurement,setting,value
"Draxin: Recombinant human Draxin purchased from R&D systems (protein, listed as Homo sapiens) MAGPAIHTAPMLFLVLLLPLELSLAGALAPGTPARNLPENHIDLPGPALWTPQASHHRRRGPGKKEWGPGLPSQAQDGAVVTATRQASRLPEAEGLLPEQSPAGLLQDKDLLLGLALPYPEKENRPPGWERTRKRSREHKRRRDRLRLHQGRALVRGPSSLMKKAELSEAQVLDAAMEESSTSLAPTMFFLTTFEAAPATEESLILPVTSLRPQQAQPRSDGEVMPTLDMALFDWTDYEDLKPDGWPSAKKKEKHRGKLSSDGNETSPAEGEPCDHHQDCLPGTCCDLREHLCTPHNRGLNNKCFDDCMCVEGLRCYAKFHRNRRVTRRKGRCVEPETANGDQGSFINV",binding to immobilised UNC5B,recombinant human UNC5B,No binding
same,binding to immobilised DCC,recombinant human DCC,No binding
same,direct binding to Netrin receptors,Netrin receptors,not able to detect direct binding
